What was measured:
[1] = molecular target: Drp1 Y493A (isoform 1) (human) (UniProt O00429)
[2] = molecular target: Drp1 Y493A (isoform 1) (human) (UniProt O00429); assay: SEC-MALS; 5 µM Drp1 injected onto a Superose 6 10/300GL column

Substance “Drp1 Y493A (isoform 1) (from UniProt O00429-1 1-736) (natural protein)” has a GTPase activity (malachite green) with cardiolipin-containing nanotubes; not stimulated [1] of 1.2 min⁻¹ and a stoichiometry N [2] of 2.

Source: article PMC10864337
